T1: CHO-S expressed hOX40L (Homo sapiens, UniProt P23510)
T1 construct: expressed in transfected cells
T1 sequence (P23510 1-183): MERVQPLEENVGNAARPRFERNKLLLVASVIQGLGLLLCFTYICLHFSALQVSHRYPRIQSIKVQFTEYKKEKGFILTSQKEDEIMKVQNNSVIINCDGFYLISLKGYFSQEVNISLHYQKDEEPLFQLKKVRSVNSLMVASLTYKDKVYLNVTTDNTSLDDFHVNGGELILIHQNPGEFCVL


What was measured:
[1] = target: T1, CHO-S expressed hOX40L; assay: FACS binding to CHO-S expressed hOX40L; details: binding to hOX40L expressed on CHO-S cells; YES
Protocol: CHO-S cells expressing hOX40L or untransfected CHO-S cells, diluted in FACS buffer (PBS+1% w/v BSA+0.1% w/v NaN3) were distributed to a 96 well V-bottom plate (Greiner) at a density of 1×10^5 cells per well. Cells were washed with 150 μL of PBS and centrifuged at 300×g for 3 min. Supernatant was aspirated and 150 μL of PBS added. This wash step was repeated.
25 μL of hybridoma supernatant or purified antibody from hybridoma supernatant diluted in FACS buffer was added to the washed cells and incubated for 10-15 minutes. Reference Antibody or mouse IgG1 control antibody (Sigma) were diluted in FACS buffer to 20 μg/mL and 25 μL added to cells. 25 μL of human OX40R Fc (in-house) diluted to 1000 ng/mL in FACS buffer were then added to wells. Cells were incubated at 4° C. for 30 minutes.
Cells were washed twice with 150 μL of PBS centrifuging after each wash step and aspirating supernatant (centrifuged at 300×g for 3 minutes).
To detect antibody and receptor binding, 50 μL of Goat anti-human IgG-PE (Jackson ImmunoResearch) and APC anti-mouse IgG (Jackson ImmunoResearch) diluted 1 in 500 in FACS buffer was added to the cells. Cells were incubated 30 minutes at 4° C. in the dark.
To fix cells 100 μL 2% v/v paraformaldehyde was added and cells incubated for 30 minutes at 4° C., cells were pelleted by centrifugation 300×g and the plates and resuspended in 50 μL of FACS buffer. PE and APC signal intensity (geomean) was measured by flow cytometry using a BD FACS Array instrument.
% of control binding was calculated using geomean fluorescence as described in equation 1 where total binding was defined as reference antibody at 10 μg/mL and non-specific binding as mouse IgG1 antibody at 10 μg/mL. % receptor binding was calculated using Equation 3.
Binding of antibodies purified from hybridoma supernatant was carried out as described herein.

[2] = target: Rhesus monkey OX40L; assay: Surface plasmon resonance, apparent affinity to rhesus OX40L; type: binding, Rhesus (Macaca mulatta); details: SPR, 25° C., OX40L at 256 nM; CNROR = Cannot resolve off-rate
Protocol: (§1) SPR analysis was carried out using the ProteOn™ XPR36 Array System (BioRad). Anti-mouse IgG (GE Healthcare BR-1008-38) was immobilised on a GLM biosensor surface using amine coupling, the surface was then blocked using 1 M ethanolamine. Test antibodies were captured on this surface and recombinant hOX40L (human and rhesus) were used at a single concentration of 256 nM, binding sensorgrams were double referenced using a buffer injection (i.e. 0 nM) to remove baseline drift and injection artefacts. Apparent affinities for the OX40L-antibody interaction were determined using the 1:1 model inherent to the ProteOn XPR36 analysis software. The assay was run using HBS-EP (Teknova) as running buffer and carried out at 25° C.

[3] = target: T2, recombinant hOX40L (Homo sapiens, UniProt P23510); assay: Surface plasmon resonance, apparent affinity to human OX40L; type: binding; details: SPR, 25° C., OX40L at 256 nM; CNROR = Cannot resolve off-rate
T2 construct: cDNA encoding the extracellular domain of human OX40L was cloned into a pREP4 expression plasmid; made in house; host or cells: FreeStyle CHO-S, transient expression
Protocol: as §1

[4] = test system: CD3 primed primary human T lymphocytes; assay: Effect of anti-OX40L antibodies on CD3 primed primary human T lymphocytes (IFN-γ release); type: cell-based; details: 10 μg/mL, 5 days, four independent donors; versus human IgG4PE isotype control
Protocol: In order to determine whether anti-OX40L had the ability to induce T-cell responses in the absence of OX40L, the assay below was performed using method adapted from Wang et al., Hybridoma (Larchmt)., 2009 Aug.; 28(4):269-76, in which an agonist anti-OX40L antibody was described.
A mouse anti-human CD3 antibody (Becton Dickinson) was diluted to 0.5 μg/mL in sterile PBS and 50 μL/well added to a 96 well high binding sterile plate and incubated overnight at 4° C.
Following overnight incubation, the plate was washed three times with 100 μL of sterile PBS.
T-cells (CD3 positive) were isolated from PBMC derived from leukoreduction system chambers (NHSBT) as described in Example 3. Following isolation, the cells were added to wells in 100 μL to achieve a final concentration of 1×10^5 cells/well.
Test antibodies were diluted in RPMI+10% FBS and 50 μL or 100 μL/well added to cell plate to achieve a final assay concentration of 10 μg/mL. In some cases, a mouse anti-human CD28 antibody (Becton Dickinson) was also added to wells at a final concentration of 1 μg/ml
The assay was incubated for 5 days. After 5 days, harvest supernatants and IFN-γ levels in supernatant were determined as described in Example 5.

[5] = test system: allogeneic PBMC/PBMC MLR; assay: Allogeneic PBMC/PBMC Mixed Lymphocyte Reaction (IFN-γ release); type: cell-based, human; details: compared to the isotype control; one valid experiment
Protocol: PBMCs are isolated from leukoreduction system chambers (NHSBT) using Ficoll-Paque plus (GE Healthcare) density gradient centrifugation. PBMC are pre-incubated with mitomycin C (Sigma) at 10 μg/mL in PBS for one hour at 37° C. Cells are then washed 3 times in PBS centrifuging at 300×g for 3 minutes, aspirating the supernatant after each wash. Allogeneic PBMC (not treated with mitomycin C) are added to a 96-well plate in RPMI supplemented with 10% v/v FBS at a concentration of 2×10^6/ml, 50 μL/well. Anti-OX40L antibodies are diluted in culture media and added to 96 well plate containing PBMC (not mitomycin C treated) at 50 μL/well. Mitomycin C treated PBMC are then added to allogeneic PBMC (not treated with mitomycin C) in 96-well plate at a final cell ratio in range of 1:1 to 4:1 mitomycin C treated to non mitomycin C based on number of cells/well. The cells are incubated for five days at 37° C./5% CO2. After five days TNF-α, IFN-γ, and IL-2 are measured by duoset ELISA (R&D Systems) according to manufacturer's recommendations. Proliferation is measured by CFSE dilution according to manufacturer's recommendations.
PBMCs were isolated from leukoreduction system chambers (NHSBT) using Ficoll-Paque plus (GE Healthcare) density gradient centrifugation. […] After five days, IFN-γ was measured by duoset ELISA (R&D Systems) according to manufacturer's recommendations. […]

Chain of Rhesus monkey OX40L (as listed by the source): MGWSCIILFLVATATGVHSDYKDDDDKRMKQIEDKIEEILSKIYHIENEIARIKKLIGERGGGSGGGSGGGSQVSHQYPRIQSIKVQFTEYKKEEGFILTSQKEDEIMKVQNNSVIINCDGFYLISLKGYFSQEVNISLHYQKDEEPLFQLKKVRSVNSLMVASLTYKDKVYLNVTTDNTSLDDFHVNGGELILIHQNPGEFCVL
T2 sequence (P23510 with tags, fused parts or gaps): as the sequence (as listed by the source) above, with Q77R, E95K counted along it

Molecule | FACS Binding [1] | Apparent Affinity RhsOX40L (nM) [2] | Apparent Affinity hOX40L (nM) [3] | IFN-γ release from CD3 primed T-cells in the absence of OX40L [4] | IFN-γ release in PBMC/PBMC MLR [5]
2D10 (hybridoma): murine/human chimeric anti-hOX40L antibody purified from hybridoma supernatant; VH SEQ ID No:34, VL SEQ ID No:48 (antibody, listed as Homo Sapiens, V domains shown) VH: EVQLVESGGGLVQPGGSLRLSCAASGFTFSNYAMNWVRQAPGKGLEWVSTISGSGGATRYADSVKGRFTISRDNSRNTVYLQMNSLRVEDTAVFYCTKDRLIMATVRGPYYYGMDVWGQGTTVTVSS VL: DIQMTQSPSSLSASVGDRVTITCRASQSISSYLNWYQQKPGKAPNLLIYAASSLQSGVPSRFSGSGSETDFTLTISSLQPEDFATYYCQQSHSVSFTFGPGTKVDIK | YES | CNROR | CNROR |  | 
10A07 (human): fully human anti-human OX40L antibody reformatted to IgG4-PE; VH SEQ ID No:2, VL SEQ ID No:16 (antibody, listed as Homo Sapiens, V domains shown, IgG4-PE constant region) VH: EVQLVESGGVLVQPGGSLRLSCAASGFTFSSYIMTWVRQAPGKGLEWVSGISGSGGGTYYADSMKGRFTISRDNSKNTLYLQMNSLRVEDTAVYYCAKDRLGPITLVRGGYYYGMDVWGQGTTVTVSS VL: DIQMTQSPSSLSASVGDRVTITCRASQSISDYLNWYQQKPGKAPKFLIYAASSLQSGVPSRFSGSGSGTDFTLTVSSLQPEDFATYYCQQSYSTPRTFGQGTRVEIK |  | CNROR | CNROR | no effect | inhibited IFN-γ release
10A07 (hybridoma): murine/human chimeric anti-hOX40L antibody purified from hybridoma supernatant; VH SEQ ID No:2, VL SEQ ID No:16 (antibody, listed as Homo Sapiens, V domains shown) VH: EVQLVESGGVLVQPGGSLRLSCAASGFTFSSYIMTWVRQAPGKGLEWVSGISGSGGGTYYADSMKGRFTISRDNSKNTLYLQMNSLRVEDTAVYYCAKDRLGPITLVRGGYYYGMDVWGQGTTVTVSS VL: DIQMTQSPSSLSASVGDRVTITCRASQSISDYLNWYQQKPGKAPKFLIYAASSLQSGVPSRFSGSGSGTDFTLTVSSLQPEDFATYYCQQSYSTPRTFGQGTRVEIK | YES | CNROR | CNROR |  | 
9H04 (hybridoma): murine/human chimeric anti-hOX40L antibody from hybridoma; VH SEQ ID No:66, VL SEQ ID No:80 (antibody, listed as Homo Sapiens, V domains shown) VH: QVQLVESGGGLVKPGGSLRLSCAASRFTLSDYYMTWIRQAPGKGLEWVSYISSSGNTIYYADSVKGRFTISRDNAKNSLYLQMNSLRAEDTAVYYCARDLSGSYWDYYYGMDVWGQGTTVTVSS VL: AIQLTQSPSSLSTSVGDRVTIACRASQGINNALAWYQQKPGKAPKLLIYDASSLESGVPSRFSGSGSGTDFTLTISSLQPEDFATYYCQQFNSYPRTFGQGTKVEIK | YES |  |  |  | 

— patent publication US9868789B2, “Synergistic combinations of OX40L antibodies for the treatment of GvHD” (Kymab Limited, priority 2015, dated 2018)
